The values that follow come from publication PMC12124358.

Experiment [1] has as its target H3 (3–19)_([change]-[change])-Ub_([change]) (UniProt P68431). The experiment can be described thus: crystal structure.
In experiment [2] the target is H3 (3–19)_([change]-[change]) (UniProt P68431). The experiment can be described thus: crystal structure.
Experiment [3] addresses unmodified histone H3 N-terminal tail (residues 1 to 20) (UniProt P68431).

Sequence of Clr4 lysine methyltransferase (KMT) domain (residues 192 to 490) (O60016 192-490): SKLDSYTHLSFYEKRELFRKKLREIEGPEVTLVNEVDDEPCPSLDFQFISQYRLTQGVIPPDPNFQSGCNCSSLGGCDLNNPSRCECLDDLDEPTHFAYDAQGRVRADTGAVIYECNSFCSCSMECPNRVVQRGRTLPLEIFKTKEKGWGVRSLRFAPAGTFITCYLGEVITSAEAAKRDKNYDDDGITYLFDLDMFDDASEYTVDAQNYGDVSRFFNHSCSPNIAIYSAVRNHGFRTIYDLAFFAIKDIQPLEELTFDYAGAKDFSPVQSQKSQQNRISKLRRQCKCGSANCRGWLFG
Sequence of full-length Clr4 (residues 1 to 490) (O60016 whole entry, the tested form may be a part): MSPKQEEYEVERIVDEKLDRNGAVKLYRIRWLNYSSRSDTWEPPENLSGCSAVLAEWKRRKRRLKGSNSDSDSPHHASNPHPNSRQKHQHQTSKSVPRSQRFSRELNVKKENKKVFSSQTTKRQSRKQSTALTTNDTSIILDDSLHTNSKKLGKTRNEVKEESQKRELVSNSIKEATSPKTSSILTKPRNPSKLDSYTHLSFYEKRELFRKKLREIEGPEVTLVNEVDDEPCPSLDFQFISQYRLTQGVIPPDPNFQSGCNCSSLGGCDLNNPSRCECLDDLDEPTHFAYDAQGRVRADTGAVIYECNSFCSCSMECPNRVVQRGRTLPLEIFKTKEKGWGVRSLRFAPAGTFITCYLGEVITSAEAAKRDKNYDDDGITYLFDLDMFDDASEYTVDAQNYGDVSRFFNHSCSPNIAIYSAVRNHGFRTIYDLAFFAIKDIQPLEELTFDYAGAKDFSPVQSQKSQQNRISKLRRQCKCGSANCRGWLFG

As for “Clr4 lysine methyltransferase (KMT) domain (residues 192 to 490) (from UniProt O60016 192-490) (domain or fragment)”, the stoichiometry N in experiment [1] and in experiment [2] was 1 each time.
For the substance “full-length Clr4 (residues 1 to 490) (from UniProt O60016 1-490) (enzyme)”, in experiment [3], the Km, Michaelis-Menten kinetics of H3K9 methylation (MTase-Glo, SAH production) stood at 75.8 µM.
As for “full-length Clr4 K455A/K472A (automethylation-mimicking) (from UniProt O60016 1-490) (enzyme)”, in experiment [3], the Km, Michaelis-Menten kinetics of H3K9 methylation (MTase-Glo, SAH production) came out at 26.5 µM.
